Assay [1] has as its target cynomolgus BTN3A as expressed on cynomolgus PBMCs (cynomolgus monkey (Macaca fascicularis)). Kind of assay: flow cytometry on cynomolgus PBMCs. (Flow cytometry measures light scatter and fluorescence of single cells or particles in a stream.)
The target in assay [2] is human BTN3A as expressed on human cells (PBMC, Daudi, tumour cell lines, HUVEC, HEK293T WT) (human). Kind of assay: flow cytometry on Daudi lymphoma cells.
Assay [3] shares this target. The experiment in a line: cell-based or functional assay.
Assay [4] has the same target. The experiment in a line: flow cytometry on human PBMCs.

B1: Chimeric 7.2 (VH0/Vκ0) (antibody, V domains shown)
VH: QVQLQQSGAELVKPGASVKLSCKASGYIFTRYYMYWVKQRPGQGLEWIGEINPNNGGTKFNEKFKNKATLTVDKFSSTAYMQLRSLTSEDSAVYYCSREDDYDGTPFAMDYWGQGTSVTVSS
VL: DIQMNQSPSSLSASLGDTITITCHASQNINVWLSWYQQKPGNIPKLLIYKASNLHTGVPSRFTGSGSGTGFTLTISSLQPEDIATYYCQQGQTYPYTFGGGTKLEIK
On to B1, for which the EC50 was 7.75 µg/mL in assay [1], 1.44 µg/mL in assay [2] and 3.6 µg/mL in assay [4]. For the same molecule, the Functional assay (AML resistant) (γδT cell-based, EC50, µg/mL) in assay [3] is 0.42 µg/mL. For the same molecule, in assay [3], the Functional assay (AML sensitive) (γδT cell-based, EC50, µg/mL) was determined as 0.12 µg/mL. Moreover, the Functional assay (Daudi) (γδT cell-based, EC50, µg/mL) in assay [3] was 0.02 µg/mL.

For orientation: EC50 means the midpoint of the concentration-response curve.

The record behind these values is patent US20260242483A1.
